What was measured:
[1] = molecular target: his-labeled human IL-13 (immunogen A) (human) (UniProt P35225); assay: FACS blocking, biotin-IL-13 on IL-13Ra2 HEK293 cells; antibody at 1.33 nM
[2] = molecular target: his-labeled human IL-13 (immunogen A) (human) (UniProt P35225); assay: ELISA, biotin-immunogen A; antibody at 0.11 nM
[3] = molecular target: T1, mouse IL-13 (purchased from sino biological) (mouse, UniProt P20109 19-131); assay: ELISA, mouse IL-13; antibody at 13.33 nM
T1 chain: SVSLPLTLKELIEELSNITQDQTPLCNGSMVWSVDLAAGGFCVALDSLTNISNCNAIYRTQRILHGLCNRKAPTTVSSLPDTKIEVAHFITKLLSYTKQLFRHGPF

[4] = molecular target: his-labeled human IL-13 (immunogen A) (human) (UniProt P35225); assay: cell-based or functional assay
[5] = molecular target: cynomolgus IL-13 (purchased from sino biological) (cynomolgus) (UniProt Q0PW92); assay: ELISA, cynomolgus IL-13; antibody at 0.021 nM
[6] = molecular target: his-labeled human IL-13 (immunogen A) (human) (UniProt P35225); assay: FACS blocking, biotin-IL-13 on IL-13Ra2 HEK293 cells; antibody at 0.01 nM
[7] = molecular target: his-labeled human IL-13 (immunogen A) (human) (UniProt P35225); assay: ELISA, biotin-immunogen A; antibody at 0.000 nM
[8] = molecular target: cynomolgus IL-13 (purchased from sino biological) (cynomolgus) (UniProt Q0PW92); assay: ELISA, cynomolgus IL-13; antibody at 13.33 nM
[9] = molecular target: his-labeled human IL-13 (immunogen A) (human) (UniProt P35225); assay: FACS blocking, biotin-IL-13 on IL-13Ra2 HEK293 cells; antibody at 33.33 nM
[10] = molecular target: his-labeled human IL-13 (immunogen A) (human) (UniProt P35225); assay: ELISA, biotin-immunogen A; antibody at 0.53 nM
[11] = molecular target: cynomolgus IL-13 (purchased from sino biological) (cynomolgus) (UniProt Q0PW92); assay: ELISA, cynomolgus IL-13; antibody at 66.67 nM
[12] = molecular target: T1, mouse IL-13 (purchased from sino …); assay: ELISA, mouse IL-13; antibody at 0.021 nM
[13] = molecular target: T1, mouse IL-13 (purchased from sino …); assay: ELISA, mouse IL-13; antibody at 0.53 nM
[14] = molecular target: his-labeled human IL-13 (immunogen A) (human) (UniProt P35225); assay: FACS blocking, biotin-IL-13 on IL-13Ra2 HEK293 cells; antibody at 0.27 nM
[15] = molecular target: his-labeled human IL-13 (immunogen A) (human) (UniProt P35225); assay: FACS blocking assay: antibody titrated with biotin-labeled immunogen A (30 ng/mL); blocked partner IL-13Ra1/IL-4Ra on HEK293 clone 4C1; Alexa 488 streptavidin
[16] = molecular target: his-labeled human IL-13 (immunogen A) (human) (UniProt P35225); assay: FACS blocking, biotin-IL-13 on IL-13Ra2 HEK293 cells; antibody at 0.05 nM
[17] = molecular target: his-labeled human IL-13 (immunogen A) (human) (UniProt P35225); assay: ELISA: biotin-labeled immunogen A on streptavidin plate, antibody titrated, HRP secondary antibody, OD450
[18] = molecular target: his-labeled human IL-13 (immunogen A) (human) (UniProt P35225); assay: ELISA, biotin-immunogen A; antibody at 0.004 nM
[19] = molecular target: cynomolgus IL-13 (purchased from sino biological) (cynomolgus) (UniProt Q0PW92); assay: ELISA, cynomolgus IL-13; antibody at 0.11 nM
[20] = molecular target: his-labeled human IL-13 (immunogen A) (human) (UniProt P35225); assay: FACS blocking, biotin-IL-13 on IL-13Ra2 HEK293 cells; antibody at 166.67 nM
[21] = molecular target: T1, mouse IL-13 (purchased from sino …); assay: ELISA, mouse IL-13; antibody at 0.001 nM
[22] = molecular target: his-labeled human IL-13 (immunogen A) (human) (UniProt P35225); assay: ELISA, biotin-immunogen A; antibody at 0.021 nM
[23] = molecular target: cynomolgus IL-13 (purchased from sino biological) (cynomolgus) (UniProt Q0PW92); assay: ELISA, cynomolgus IL-13; antibody at 0.004 nM
[24] = molecular target: T1, mouse IL-13 (purchased from sino …); assay: ELISA, mouse IL-13; antibody at 0.004 nM
[25] = molecular target: T1, mouse IL-13 (purchased from sino …); assay: ELISA, mouse IL-13; antibody at 0.11 nM
[26] = molecular target: T1, mouse IL-13 (purchased from sino …); assay: ELISA, mouse IL-13; antibody at 0.000 nM
[27] = molecular target: T1, mouse IL-13 (purchased from sino …); assay: ELISA, mouse IL-13; antibody at 2.67 nM
[28] = molecular target: his-labeled human IL-13 (immunogen A) (human) (UniProt P35225); assay: FACS blocking, biotin-IL-13 on IL-13Ra2 HEK293 cells; antibody at 6.67 nM
[29] = molecular target: his-labeled human IL-13 (immunogen A) (human) (UniProt P35225); assay: FACS blocking assay: antibody titrated with biotin-labeled immunogen A (20 ng/mL); blocked partner IL-13Ra2 on HEK293 clone 1A1; Alexa 488 streptavidin
[30] = molecular target: cynomolgus IL-13 (purchased from sino biological) (cynomolgus) (UniProt Q0PW92); assay: ELISA, cynomolgus IL-13; antibody at 2.67 nM
[31] = molecular target: cynomolgus IL-13 (purchased from sino biological) (cynomolgus) (UniProt Q0PW92); assay: ELISA, cynomolgus IL-13; antibody at 0.53 nM
[32] = molecular target: his-labeled human IL-13 (immunogen A) (human) (UniProt P35225); assay: FACS blocking, biotin-IL-13 on IL-13Ra2 HEK293 cells; antibody at 0.002 nM
[33] = molecular target: his-labeled human IL-13 (immunogen A) (human) (UniProt P35225); assay: ELISA, biotin-immunogen A; antibody at 2.67 nM
[34] = molecular target: his-labeled human IL-13 (immunogen A) (human) (UniProt P35225); assay: ELISA, biotin-immunogen A; antibody at 0.001 nM
[35] = molecular target: his-labeled human IL-13 (immunogen A) (human) (UniProt P35225); assay: ELISA, biotin-immunogen A; antibody at 13.33 nM

Chain of cynomolgus IL-13 (purchased from sino biological) (cynomolgus) (Q0PW92 entry or part of it): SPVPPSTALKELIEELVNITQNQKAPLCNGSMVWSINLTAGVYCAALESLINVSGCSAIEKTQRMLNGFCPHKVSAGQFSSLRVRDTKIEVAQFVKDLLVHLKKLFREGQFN

B1: 35E2C3 (lead antibody, mouse hybridoma) (antibody, V domains shown)
VH: EVQLQESGPGLAKPSQTLSLTCSVTGYSITSDYWNWIRKFPGNKLEYMGYISYNGNTYYNPSLKSQISITRDTSKNQLYLQLKSATTEDTATYYCARLAKWTWYFDIWGTGTTVTVSS
VL: DIQMNQSPSSLSASLGDTITITCHASQNINVWLSWYQQKPGSLPKLLIYKASDLHTGVPSRFSGSGSGTGFTLTISSLQPEDIATYYCQQGQSYPYTFGGGTKLEIK
notes: Mouse monoclonal antibody purified from hybridoma supernatant on Protein G
mean fluorescence intensity [1]: 38.7 | OD450 nm [2]: 0.41 | OD450 nm [3]: 0.09 | TARC (pg/mL), A549 cells + IL-13 5 ng/mL + TNFα; antibody at 0.001 nM [4]: 1730 pg/mL | TARC (pg/mL), A549 cells + IL-13 5 ng/mL + TNFα; antibody at 0.004 nM [4]: 1670 pg/mL | TARC (pg/mL), A549 cells + IL-13 5 ng/mL + TNFα; antibody at 0.021 nM [4]: 1620 pg/mL | TARC (pg/mL), A549 cells + IL-13 5 ng/mL + TNFα; antibody at 0.11 nM [4]: 1550 pg/mL | TARC (pg/mL), A549 cells + IL-13 5 ng/mL + TNFα; antibody at 0.5 nM [4]: 1340 pg/mL | TARC (pg/mL), A549 cells + IL-13 5 ng/mL + TNFα; antibody at 2.7 nM [4]: 797 pg/mL | TARC (pg/mL), A549 cells + IL-13 5 ng/mL + TNFα; antibody at 13.3 nM [4]: 278 pg/mL | TARC (pg/mL), A549 cells + IL-13 5 ng/mL + TNFα; antibody at 66.7 nM [4]: 67 pg/mL | OD450 nm [5]: 0.07 | mean fluorescence intensity [6]: 74.3 | OD450 nm [7]: 0.05 | OD450 nm [8]: 1.13 | mean fluorescence intensity [9]: 32.4 | OD450 nm [10]: 0.91 | OD450 nm [11]: 1.56 | OD450 nm [12]: 0.06 | OD450 nm [13]: 0.06 | mean fluorescence intensity [14]: 53.2 | IC50 (read off the curve) [15]: 0.4 nM | mean fluorescence intensity [16]: 66.6 | EC50 (read off the curve) [17]: 0.3 nM | OD450 nm [18]: 0.07 | OD450 nm [19]: 0.11 | mean fluorescence intensity [20]: 28.9 | OD450 nm [21]: 0.07 | OD450 nm [22]: 0.15 | OD450 nm [23]: 0.07 | OD450 nm [24]: 0.06 | OD450 nm [25]: 0.06 | OD450 nm [26]: 0.07 | OD450 nm [27]: 0.08 | mean fluorescence intensity [28]: 35.1 | IC50 (read off the curve) [29]: 0.3 nM | OD450 nm [30]: 0.52 | OD450 nm [31]: 0.21 | mean fluorescence intensity [32]: 76 | OD450 nm [33]: 1.31 | OD450 nm [34]: 0.05 | OD450 nm [35]: 1.39
